Experimental data taken from publication PMC12809078 (2025).

Target: CtBP2_(31-364)-StrepI (human, UniProt P56545 31-364)
Assay: ITC

- Kd: 7.2 µM
Binder: NKEGDTAWDLTPE [G9a peptide encompassing residues 881 to 893]
